Data reported in PMC3538003, “A full-length recombinant Plasmodium falciparum PfRH5 protein induces inhibitory antibodies that are effective across common PfRH5 genetic variants” (Vaccine, 2013).
Where two headings read alike, the source gives them in different places.

How the values were obtained:
[1] = target: 7G8 PfRH5-Cd4-biotin (P. falciparum Reticulocyte Binding Protein Homologue 5, 7G8 variant) (Plasmodium falciparum (7G8)); experiment: SPR; equilibrium analysis; biotinylated PfRH5-Cd4 captured on a streptavidin chip, biotinylated rat Cd4d3+4 in the reference cell; serial dilutions of basigin-Cd4-6H injected at 20 µl/min; BIAcore T100, 37°C, HBS-EP; regeneration with 2M NaCl
[2] = target: 3D7 PfRH5-Cd4-biotin (P. falciparum Reticulocyte Binding Protein Homologue 5, 3D7 variant) (Plasmodium falciparum (3D7)); experiment: SPR; kinetic analysis, simple 1:1 model fitted globally; biotinylated PfRH5-Cd4 captured on a streptavidin chip, biotinylated rat Cd4d3+4 in the reference cell; serial dilutions of basigin-Cd4-6H injected at 100 µl/min; BIAcore T100, 37°C, HBS-EP; regeneration with 2M NaCl
[3] = target: 7G8 PfRH5-Cd4-biotin (P. falciparum Reticulocyte Binding Protein Homologue 5, 7G8 variant) (Plasmodium falciparum (7G8)); experiment: SPR; equilibrium analysis; biotinylated PfRH5-Cd4 captured on a streptavidin chip, biotinylated rat Cd4d3+4 in the reference cell; serial dilutions of basigin-Cd4-6H injected at 20 µl/min; BIAcore T100, 37°C, HBS-EP; regeneration with 2M NaCl; remark: listed apart in the source
[4] = target: 3D7 PfRH5-Cd4-biotin (P. falciparum Reticulocyte Binding Protein Homologue 5, 3D7 variant) (Plasmodium falciparum (3D7)); experiment: as above
[5] = target: GB4 PfRH5-Cd4-biotin (P. falciparum Reticulocyte Binding Protein Homologue 5, GB4 variant) (Plasmodium falciparum (GB4)); experiment: as above
[6] = target: 3D7 PfRH5-Cd4-biotin (P. falciparum Reticulocyte Binding Protein Homologue 5, 3D7 variant) (Plasmodium falciparum (3D7)); experiment: SPR; kinetic analysis, simple 1:1 model fitted globally; biotinylated PfRH5-Cd4 captured on a streptavidin chip, biotinylated rat Cd4d3+4 in the reference cell; serial dilutions of basigin-Cd4-6H injected at 100 µl/min; BIAcore T100, 37°C, HBS-EP; regeneration with 2M NaCl; remark: listed apart in the source
[7] = target: 7G8 PfRH5-Cd4-biotin (P. falciparum Reticulocyte Binding Protein Homologue 5, 7G8 variant) (Plasmodium falciparum (7G8)); experiment: as above
[8] = target: 3D7 PfRH5-Cd4-biotin (P. falciparum Reticulocyte Binding Protein Homologue 5, 3D7 variant) (Plasmodium falciparum (3D7)); experiment: as above; remark: listed apart in the source
[9] = target: GB4 PfRH5-Cd4-biotin (P. falciparum Reticulocyte Binding Protein Homologue 5, GB4 variant) (Plasmodium falciparum (GB4)); experiment: as above
[10] = target: 7G8 PfRH5-Cd4-biotin (P. falciparum Reticulocyte Binding Protein Homologue 5, 7G8 variant) (Plasmodium falciparum (7G8)); experiment: as above; remark: listed apart in the source
[11] = target: GB4 PfRH5-Cd4-biotin (P. falciparum Reticulocyte Binding Protein Homologue 5, GB4 variant) (Plasmodium falciparum (GB4)); experiment: SPR; equilibrium analysis; biotinylated PfRH5-Cd4 captured on a streptavidin chip, biotinylated rat Cd4d3+4 in the reference cell; serial dilutions of basigin-Cd4-6H injected at 20 µl/min; BIAcore T100, 37°C, HBS-EP; regeneration with 2M NaCl; remark: listed apart in the source
[12] = target: 7G8 PfRH5-Cd4-biotin (P. falciparum Reticulocyte Binding Protein Homologue 5, 7G8 variant) (Plasmodium falciparum (7G8)); experiment: SPR; kinetic analysis, simple 1:1 model fitted globally; biotinylated PfRH5-Cd4 captured on a streptavidin chip, biotinylated rat Cd4d3+4 in the reference cell; serial dilutions of basigin-Cd4-6H injected at 100 µl/min; BIAcore T100, 37°C, HBS-EP; regeneration with 2M NaCl; remark: listed apart in the source
[13] = target: GB4 PfRH5-Cd4-biotin (P. falciparum Reticulocyte Binding Protein Homologue 5, GB4 variant) (Plasmodium falciparum (GB4)); experiment: as above; remark: listed apart in the source
[14] = target: GB4 PfRH5-Cd4-biotin (P. falciparum Reticulocyte Binding Protein Homologue 5, GB4 variant) (Plasmodium falciparum (GB4)); experiment: as above; remark: listed apart in the source
[15] = target: GB4 PfRH5-Cd4-biotin (P. falciparum Reticulocyte Binding Protein Homologue 5, GB4 variant) (Plasmodium falciparum (GB4)); experiment: SPR; equilibrium analysis; biotinylated PfRH5-Cd4 captured on a streptavidin chip, biotinylated rat Cd4d3+4 in the reference cell; serial dilutions of basigin-Cd4-6H injected at 20 µl/min; BIAcore T100, 37°C, HBS-EP; regeneration with 2M NaCl; remark: listed apart in the source
[16] = target: human basigin extracellular region, soluble Cd4d3+4-6H-tagged (basigin-Cd4-6H) (human, UniProt P35613 138-325); experiment: SPR; BIAcore T100; monomeric biotinylated PfRH5-Cd4 bait captured on a streptavidin-coated chip, Cd4-biotin in the reference flow cell; serial dilutions of purified basigin-Cd4-6H injected at 20 ul/min (equilibrium) or 100 ul/min (kinetics); Langmuir isotherm fit; settings: both partners purified

“basigin-L-Cd4d3+4-6H (extracellular region of human basigin) (from UniProt P35613 138-325) (domain or fragment)” showed a Kd [1] of 0.8 µM, a koff [2] of 0.238 s⁻¹ and a kon [2] of 93000 M⁻¹ s⁻¹. The Kd [3] was 1 µM, the Kd [4] was 1.6 µM and the Kd [5] was 1.1 µM. It also gave a koff [6] of 0.236 s⁻¹, a kon [6] of 95600 M⁻¹ s⁻¹ and a koff [7] of 0.256 s⁻¹. The kon [7] was 128000 M⁻¹ s⁻¹, the koff [8] was 0.24 s⁻¹ and the kon [8] was 89600 M⁻¹ s⁻¹. It also gave a koff [9] of 0.216 s⁻¹, a kon [9] of 118000 M⁻¹ s⁻¹ and a koff [10] of 0.251 s⁻¹. For the same molecule, the kon [10] was 125000 M⁻¹ s⁻¹, the Kd [11] was 0.8 µM and the koff [12] was 0.245 s⁻¹. For the same molecule, the kon [12] was 122000 M⁻¹ s⁻¹, the koff [13] was 0.244 s⁻¹ and the kon [13] was 95900 M⁻¹ s⁻¹. For the same molecule, the koff [14] was 0.23 s⁻¹, the kon [14] was 110000 M⁻¹ s⁻¹ and the Kd [15] was 1 µM.

B1: 7G8 PfRH5-Cd4-biotin (P. falciparum Reticulocyte Binding Protein Homologue 5, 7G8 variant) (ligand)
chain: FENAIKKTKNQENNLALLPIKSTEEEKDDIKNGKDIKKEIDNDKENIKTNNAKDHSTYIKSYLNTNVNDGLKYLFIPSHNSFIKKYSVFNQINDGMLLNEKNDVKNNEDYKNVDYKNVNFLQYHFKELSNYNIANSIDILQEKEGHLDFVIIPHYTFLDYYKHLSYNSIYHKSSTYGKYIAVDAFIKKINEAYDKVKSKCNDIKNDLIATIKKLEHPYDINNKNDDSYRYDISEEIDDKSEETDDETEEVEDSIQDTDSNHAPSNKKKNDLMNRAFKKMMDEYNTKKKKLIKCIKNHENDFNKICMDMKNYGTNLFEQLSCYNNNFCNTNGIRYHYDEYIHKLILSVKSKNLNKDLSDMTNILQQSELLLTNLNKKMGSYIYIDTIKFIHKEMKHIFNRIEYHTKIINDKTKIIQDKIKLNIWRTFQKDELLKRILDMSNEYSLFITSDHLRQMLYNTFYSKEKHLNNIFHHLIYVLQMKFNDVPIKMEYFQTYKKNKPLTQ
modifications: monobiotinylated (biotin)
With B1 the Kd [16] was 0.9 µM.
